Here are results for five molecules from PMC6953907.

In data set [1] the target is T1, DDX17 Core WT (human, UniProt Q92841-1 32-477). Briefly: X-ray crystallography.
Data set [2] concerns the target T1, DDX17 Core WT. Briefly: X-ray crystallography. The source holds these as a separate data set.
The target of data set [3] is T1, DDX17 Core WT. Briefly: EMSA.

T1 sequence (Q92841 111-556): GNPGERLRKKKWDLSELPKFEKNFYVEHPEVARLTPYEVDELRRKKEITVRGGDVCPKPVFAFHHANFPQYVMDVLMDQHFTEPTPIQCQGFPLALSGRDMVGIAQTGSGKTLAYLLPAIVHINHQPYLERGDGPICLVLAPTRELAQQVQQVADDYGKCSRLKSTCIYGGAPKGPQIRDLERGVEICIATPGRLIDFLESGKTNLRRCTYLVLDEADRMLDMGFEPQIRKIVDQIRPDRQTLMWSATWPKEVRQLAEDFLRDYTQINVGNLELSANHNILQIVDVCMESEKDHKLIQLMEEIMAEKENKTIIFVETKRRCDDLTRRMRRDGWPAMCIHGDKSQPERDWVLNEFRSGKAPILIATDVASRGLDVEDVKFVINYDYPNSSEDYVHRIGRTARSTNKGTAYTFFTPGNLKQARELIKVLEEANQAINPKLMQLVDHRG

As for ACACACCUGG (ssRNA) [125a-oligo2], the binding result in data set [1] was “binds”. For UUUUUUUUUU (ssRNA) [rU10], in data set [2], the binding result is given as “binds”. On to AUUCAUCCAA (ssRNA) [18a-oligo1], for which the binding result in data set [1] is listed as “binds”. Regarding CACACACCUG (ssRNA) [125a-oligo1], the binding result in data set [1] was “binds”. Take AAAAAAAAAA (ssRNA) [rA10]: in data set [3], the binding result is on record as “no binding”.
